# Measured values: patent US20260209362A1 (VIB VZW, published 2026)
# Changes are numbered by the printed parent chain.
# T1: biotinylated recombinant human IL-12Rβ2 (human, UniProt Q99665 24-622, random biotinylated)
# T1 construct: Recombinant protein produced in-house, biotinylated; also called hIL-12RB2; human IL-12RB2
# T1 sequence: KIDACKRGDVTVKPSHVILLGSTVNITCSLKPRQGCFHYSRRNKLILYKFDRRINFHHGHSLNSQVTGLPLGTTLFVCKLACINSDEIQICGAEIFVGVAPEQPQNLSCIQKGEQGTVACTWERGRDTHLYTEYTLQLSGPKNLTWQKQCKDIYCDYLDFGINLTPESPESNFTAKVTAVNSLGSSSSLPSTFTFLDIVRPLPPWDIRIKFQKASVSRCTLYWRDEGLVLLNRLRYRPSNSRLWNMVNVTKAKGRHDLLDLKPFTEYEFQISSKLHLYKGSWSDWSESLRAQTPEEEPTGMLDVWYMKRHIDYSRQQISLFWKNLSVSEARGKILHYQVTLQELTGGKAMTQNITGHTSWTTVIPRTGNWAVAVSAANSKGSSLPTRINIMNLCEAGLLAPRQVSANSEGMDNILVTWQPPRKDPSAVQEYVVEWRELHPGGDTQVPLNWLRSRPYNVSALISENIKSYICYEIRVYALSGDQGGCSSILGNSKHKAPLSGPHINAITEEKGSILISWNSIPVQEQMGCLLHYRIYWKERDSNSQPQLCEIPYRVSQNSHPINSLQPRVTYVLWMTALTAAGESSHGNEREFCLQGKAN
# T2: biotinylated recombinant mouse IL-12Rβ2 (mouse, UniProt P97378 24-637, random biotinylated)
# T2 construct: Recombinant protein produced in-house, biotinylated; also called mIL-12RB2; mouse IL-12RB2
# T2 sequence: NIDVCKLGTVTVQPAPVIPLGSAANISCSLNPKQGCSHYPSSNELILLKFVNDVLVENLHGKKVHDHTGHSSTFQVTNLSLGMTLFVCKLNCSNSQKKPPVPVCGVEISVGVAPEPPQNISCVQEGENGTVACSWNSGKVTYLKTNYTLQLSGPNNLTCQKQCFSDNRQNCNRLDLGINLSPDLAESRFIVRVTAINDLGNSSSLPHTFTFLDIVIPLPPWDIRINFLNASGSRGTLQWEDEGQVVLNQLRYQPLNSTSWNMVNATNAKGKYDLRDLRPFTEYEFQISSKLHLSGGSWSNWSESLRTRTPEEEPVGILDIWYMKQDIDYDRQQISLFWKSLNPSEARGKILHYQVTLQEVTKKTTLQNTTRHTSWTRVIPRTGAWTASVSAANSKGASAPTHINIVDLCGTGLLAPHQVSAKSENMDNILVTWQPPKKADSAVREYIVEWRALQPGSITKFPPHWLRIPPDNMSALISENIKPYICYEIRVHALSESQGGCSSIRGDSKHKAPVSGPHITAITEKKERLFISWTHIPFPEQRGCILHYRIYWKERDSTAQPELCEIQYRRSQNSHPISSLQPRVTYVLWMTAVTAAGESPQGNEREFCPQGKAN
# T3: human IL-12Rβ2 (human, UniProt Q99665 24-862)
# T3 construct: Expressed on HEK293T cells transiently transfected with a pcDNA3 plasmid (Genscript clone OHu21785); also called hIL-12RB2; IL-12 receptor β2 subunit
# T3 sequence: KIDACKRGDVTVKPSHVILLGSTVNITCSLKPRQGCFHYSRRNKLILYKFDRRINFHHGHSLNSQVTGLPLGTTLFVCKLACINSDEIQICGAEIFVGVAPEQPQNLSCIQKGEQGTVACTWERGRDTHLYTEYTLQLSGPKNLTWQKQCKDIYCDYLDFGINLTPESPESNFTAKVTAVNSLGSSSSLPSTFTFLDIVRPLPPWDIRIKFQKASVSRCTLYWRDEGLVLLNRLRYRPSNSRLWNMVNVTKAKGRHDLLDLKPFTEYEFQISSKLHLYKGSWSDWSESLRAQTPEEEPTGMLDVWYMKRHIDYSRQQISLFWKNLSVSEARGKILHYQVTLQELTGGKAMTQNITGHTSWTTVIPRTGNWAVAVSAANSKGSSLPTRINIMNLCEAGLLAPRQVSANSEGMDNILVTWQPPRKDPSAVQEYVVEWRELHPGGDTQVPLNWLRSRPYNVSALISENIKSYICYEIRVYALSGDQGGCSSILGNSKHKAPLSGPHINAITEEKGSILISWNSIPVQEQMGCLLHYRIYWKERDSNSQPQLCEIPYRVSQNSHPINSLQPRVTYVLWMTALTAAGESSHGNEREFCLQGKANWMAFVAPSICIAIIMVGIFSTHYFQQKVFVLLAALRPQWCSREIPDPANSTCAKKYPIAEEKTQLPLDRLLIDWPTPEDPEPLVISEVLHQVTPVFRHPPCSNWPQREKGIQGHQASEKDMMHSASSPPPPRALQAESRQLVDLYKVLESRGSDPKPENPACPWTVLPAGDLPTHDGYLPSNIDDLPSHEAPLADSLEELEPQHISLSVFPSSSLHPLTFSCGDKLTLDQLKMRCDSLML
# B1: anti-IL-12Rβ2 VHH clone 20510 (VHH, not shown: small tags and cut ends)
# VHH: QVQLQESGGGLVQAGGSLRLSCAASGRTFSSYGMGWFRQAPGKEREFVAAISRGARITDYADSVKGRFTISRDNAKNTAYLQMNSLNPEDTAVYFCAAAYTYSGSHYVTARSSDYHSWGQGTQVTVSS
# notes: tested as periplasmic extract; also called 3CAM31
# B2: anti-IL-12Rβ2 VHH clone 20488 (VHH, not shown: small tags and cut ends)
# VHH: B1 VHH with V12M, G16D
# notes: tested as periplasmic extract; also called 2CAM48
# B3: anti-IL-12Rβ2 VHH clone 20491 (VHH, not shown: small tags and cut ends)
# VHH: B1 VHH with E46D, G54D, I57Y, R72K, S113G, H116N, S117Y
# notes: tested as periplasmic extract; also called 2CAM57
# B4: anti-IL-12Rβ2 VHH clone 20499 (VHH, not shown: small tags and cut ends)
# VHH: B1 VHH with G54D, R56S, Q82E
# notes: tested as periplasmic extract; also called 2CAM75
# B5: anti-IL-12Rβ2 VHH clone 20480 (VHH, not shown: small tags and cut ends)
# VHH: B1 VHH with G54D, Q82E
# notes: tested as periplasmic extract; also called 2CAM36
# B6: anti-IL-12Rβ2 VHH clone 20497 (VHH, not shown: small tags and cut ends)
# VHH: B1 VHH with G16D
# notes: tested as periplasmic extract; also called 2CAM72
# B7: anti-IL-12Rβ2 VHH clone 20481 (VHH, not shown: small tags and cut ends)
# VHH: B1 VHH with E46D, G54D, A75V, A79V
# notes: tested as periplasmic extract; also called 2CAM38
# B8: anti-IL-12Rβ2 VHH clone 20495 (VHH, not shown: small tags and cut ends)
# VHH: B1 VHH with S31M, Y32H, G54D, H116N, S117Y
# notes: tested as periplasmic extract; also called 2CAM69
# B9: anti-IL-12Rβ2 VHH clone 20469 (VHH, not shown: small tags and cut ends)
# VHH: B1 VHH with A14P, E44K, G54D, Q82E
# notes: tested as periplasmic extract; also called 2CAM8
# B10: anti-IL-12Rβ2 VHH clone 20527 (VHH, not shown: small tags and cut ends)
# VHH: QVQLQESGGGLVQAGGSLRLSCAASGFTLSTYAMSWVRQAPGKGLEWVSSISSSGASTNYADSVKGRFTISRDNAKNTLYLQMNSLKPEDTAVYYCAKASQNYSPPGQGTQVTVSS
# notes: tested as periplasmic extract; also called 3CRMS90
# B11: anti-IL-12Rβ2 VHH clone 20447 (VHH, not shown: small tags and cut ends)
# VHH: B10 VHH with A14P, L29F, S30R, T31S, A56T, S57D, F68L, A75V
# notes: tested as periplasmic extract; also called 2CRM39
# B12: anti-IL-12Rβ2 VHH clone 20451 (VHH, not shown: small tags and cut ends)
# VHH: B10 VHH with A14P, L29F, T31A, S54T, A56T, S57N, T58P, K98E, S100Y, Q101R
# notes: tested as periplasmic extract; also called 2CRM83
# B13: anti-IL-12Rβ2 VHH clone 20452 (VHH, not shown: small tags and cut ends)
# VHH: B10 VHH with T28A, L29F, T31S, Y32V, S54G, A56H, S57D, D62N, A99S, Q101R
# notes: tested as periplasmic extract; also called 2CRM84
# B14: anti-IL-12Rβ2 VHH clone 2CRH62 (VHH, not shown: small tags and cut ends)
# VHH: QVQLQESGGGLVQPGGSLRLSCVESGRTFTVYDMGWFRQAPGKEREIVAAISADGATSIYQDSVKGRFTISRDNDAKNTVYLQMNSLKPEDTAVYYCAAGRSLIYNLYRANNTDYWGQGTQVTVSS
# notes: periplasmic extract
# B15: anti-IL-12Rβ2 VHH clone 3CAH34 (VHH, not shown: small tags and cut ends)
# VHH: QVQLQESGGGSVQPGGSLRLSCGASGFTFSSFGMHWFRQAPGKGQEWAATISSSGGTTYYSDSVKGRFTISRDNAKNTLYLQMNSLKPEDTALYYCARDVTGAVRGQGTQVTVSS
# notes: periplasmic extract; also called 20358
# B16: anti-IL-12Rβ2 VHH clone 3CAHS172 (VHH, not shown: small tags and cut ends)
# VHH: B15 VHH with P14A, A48V
# notes: periplasmic extract
# B17: anti-IL-12Rβ2 VHH clone 3CAH28 (VHH, not shown: small tags and cut ends)
# VHH: QVQLQESGGGLVQSGASLRLSCAASERTLSGYAMGWFRQAPGKEREFVAAIRWSGSSTYYAESVEGRFTISRDNAKNTVYLQMNILKPEDTAVYYCAAGSDYADEYDYWGQGTQVTVSS
# notes: periplasmic extract; also called 20356
# B18: anti-IL-12Rβ2 VHH clone 3CRH73 (VHH, not shown: small tags and cut ends)
# VHH: QVQLQESGGGLVRAGGSLRLSCAASGHTFSNYVMGWFRQAPGKEREFVAAISWGGSNTYYADSVKGRFTISRDNAKNTVYLQMNSLKVEDTAVYYCAADRRFEGWNYYSMDYWGKGTQVTVSS
# notes: periplasmic extract
# B19: anti-IL-12Rβ2 VHH clone 3CAHS153 (VHH, not shown: small tags and cut ends)
# VHH: QVQLQESGGGLVQAGGSLRLSCAASGRTFSSYAMGWFRQVPGKERDFVAAVSWGGLSTYYADSVEGRFTISRDNAKNTVFLQMNSLKPEDTAVYYCAADRAYEGLGYGEYEYWGQGTQVTVSS
# notes: periplasmic extract
# B20: anti-IL-12Rβ2 VHH clone 3CRH83 (VHH, not shown: small tags and cut ends)
# VHH: QVQLQESGGGLVQAGGSLKLSCAASGNTFSINAMAWYRQAPGQELELVAAISDVGNTIYADSMKGRFTISRGNADNTVYLQMNSLKPEDTATYYCNAGTFYTSPGDSYYRGYDFWGQGTQVTVSS
# notes: periplasmic extract
# B21: anti-IL-12Rβ2 VHH clone 2CRH82 (VHH, not shown: small tags and cut ends)
# VHH: QVQLQESGGGLVQAGGSLRLSCAASARTESMYAMAWFRQAPGKEREIVAGIIQSGGTTYISDYMKGRFSIDRGNAENTVYLQMDSLKPEDTAVYSCAAKVSSGTPSDIQISQSRWYDHWGQGTQVTVSS
# notes: periplasmic extract
# B22: anti-IL-12Rβ2 VHH clone 3CAH60 (VHH, not shown: small tags and cut ends)
# VHH: QVQLQESGGGLVQPGGSLILSCVASGFAMDYLTMGWSREAPRNEREDISCIDTSGRSTDYLDSVKGRFTISRDNAKNTLYLHMNDLKPEDTAEYYCLASTSYCGAGYEYRGQGTQVTVSS
# notes: periplasmic extract; also called 20361
# B23: anti-IL-12Rβ2 VHH clone 3CRH93 (VHH, not shown: small tags and cut ends)
# VHH: QVQLQESGGGLVQAGGSLRLSCAASGRTVDSYAMGWFRQTPGKEREFVAASWGGGSTYYADSVKGRFTISRDNVKNTMYLQMDSLKPEDTAVYYCAAGPTYYSGPINDNWEGRYDSWGQGTQVTVSS
# notes: periplasmic extract
# B24: anti-IL-12Rβ2 VHH clone 2CRH76 (VHH, not shown: small tags and cut ends)
# VHH: QVQLQESGGGLVQTGGSLRLSCVASGRTFNWSAMGWFRQPPGKEREVVATISGGGTSAYYADSVKGRFTISRDGAKNTLYLQMNSLKPEDTAVYYCAADRVDYRMTLTQNGNHYWGQGTQVTVSS
# notes: periplasmic extract
# Target: T1, biotinylated recombinant human IL-12Rβ2
# Assay: ELISA, periplasmic extract on biotinylated hIL-12Rβ2, signal over control wells
row,Binder,ELISA binding hIL-12RB2/control [ratio]
1,B1,1.2
2,B2,0.973
3,B3,1
4,B4,0.985
5,B5,0.979
6,B6,0.932
7,B7,0.983
8,B8,0.924
9,B9,1.05
10,B10,0.834
11,B11,1.4
12,B12,1.26
13,B13,0.989

# Target: T2, biotinylated recombinant mouse IL-12Rβ2
# Assay: ELISA, periplasmic extract on biotinylated mIL-12Rβ2, signal over control wells
row,Binder,ELISA binding mIL-12RB2/control [ratio]
1,B1,16.4
2,B2,12.9
3,B3,14.4
4,B4,10.4
5,B5,18.1
6,B6,13.4
7,B7,15.8
8,B8,15.8
9,B9,22
10,B10,9.93
11,B11,11.8
12,B12,33.5
13,B13,7.52

# Target: T3, human IL-12Rβ2
# Assay: flow cytometry, P.E. on transfected HEK293T cells
Binder,% cells bound [%],dMFI
B14,41.9,891
B15,34.6,620
B16,43,1020
B17,0.15,37
B18,41.2,918
B19,36.8,789
B20,28.3,602
B21,40.1,844
B22,0.1,18
B23,31.5,580
B24,36.6,668
